According to the Immune Epitope Database (IEDB):
pKd: −log10 of the molar value.

What was measured:
HLA-A*02:01 [1] = experiment: IEDB peptide-MHC binding, purified MHC/competitive/radioactivity; filed as Kd, often an IC50 or EC50 that approximates it; ≥ and ≤ were set here for values at or beyond the usual limits of such assays
HLA-B*40:01 = experiment: as above
HLA-B*44:02 = experiment: as above
HLA-B*44:03 = experiment: as above
HLA-A*02:01 [2] = experiment: IEDB peptide-MHC binding, purified MHC/competitive/fluorescence; filed as Kd, often an IC50 or EC50 that approximates it; ≥ and ≤ were set here for values at or beyond the usual limits of such assays; conditions: source organism: Variola major virus
HLA-A*02:03 = experiment: IEDB peptide-MHC binding, purified MHC/competitive/radioactivity; filed as Kd, often an IC50 or EC50 that approximates it; ≥ and ≤ were set here for values at or beyond the usual limits of such assays
HLA-A*02:02 = experiment: as above
HLA-A*02:06 = experiment: as above
HLA-A*68:02 = experiment: as above
HLA-A*26:01 [3] = experiment: as above
HLA-A*29:02 = experiment: as above
HLA-A*30:02 = experiment: as above
HLA-A*32:01 = experiment: as above
HLA-A*01:01 = experiment: as above
HLA-A*30:01 = experiment: as above
HLA-B*39:01 = experiment: IEDB peptide-MHC binding, purified MHC/competitive/fluorescence; filed as Kd, often an IC50 or EC50 that approximates it; ≥ and ≤ were set here for values at or beyond the usual limits of such assays
HLA-B*51:01 = experiment: as above; conditions: source organism: Bacillus anthracis str. A0442
HLA-A*26:01 [4] = experiment: IEDB peptide-MHC binding, purified MHC/direct/fluorescence; filed as Kd, often an IC50 or EC50 that approximates it; ≥ and ≤ were set here for values at or beyond the usual limits of such assays; conditions: source organism: West Nile virus
HLA-B*46:01 = experiment: IEDB peptide-MHC binding, purified MHC/competitive/fluorescence; filed as Kd, often an IC50 or EC50 that approximates it; ≥ and ≤ were set here for values at or beyond the usual limits of such assays; conditions: source organism: Vibrio vulnificus CMCP6
HLA-B*15:01 = experiment: as above; conditions: source organism: Human immunodeficiency virus 1
[5] = source organism: Dengue virus 2 Jamaica/1409/1983
[6] = source organism: Dengue virus 4 Philippines/H241/1956
[7] = source organism: Vaccinia virus WR
[8] = source organism: Dengue virus 3 Martinique/1243/1999
[9] = source organism: Trypanosoma cruzi
[10] = source organism: Mammarenavirus choriomeningitidis
[11] = source organism: Mammarenavirus brazilense
[12] = source organism: Dengue virus 1 Brazil/97-11/1997
[13] = source organism: HIV-1 M:B_ARV2/SF2
[14] = source organism: Mammarenavirus guanaritoense

Q: With AAGLQDCTM as the sequence, how does the pKd (HLA-A*02:01 [1]; source organism: Hepatitis C virus (isolate 1)) read?
A: ≤ 4.30

Q: How did the pKd (HLA-B*40:01; [5]) turn out when AEAIFKLTYQ was run?
A: 5.84

Q: And the pKd (HLA-B*44:02; [5])?
A: 6.70

Q: What about the pKd (HLA-B*44:03; [5]) of the same sequence?
A: 6.57

Q: How did the pKd (HLA-B*44:02; [6]) turn out when AGADTSEVHW was run?
A: 5.31

Q: What does the source list for AMHDKKIDIL?
A: pKd (HLA-A*02:01 [2]): 6.65; pKd (HLA-A*02:03; [7]): 5.93; pKd (HLA-A*02:02; [7]): 6.41; pKd (HLA-A*02:06; [7]): ≤ 4.16

Q: With ATMANEMGFL as the sequence, how does the pKd (HLA-A*68:02; [5]) read?
A: 7.16

Q: How did the pKd (HLA-A*02:01 [1]; source organism: Lassa virus Josiah) turn out when AVWDQYKDL was run?
A: 4.90

Q: DTAWDFGSV was tested. Which pKd (HLA-A*26:01 [3]; [8]) did it give?
A: 6.76

Q: And the pKd (HLA-A*68:02; [8])?
A: 8.82

Q: DVSRPTTVM was tested. Which pKd (HLA-A*02:03; [9]) did it give?
A: 4.81

Q: What about the pKd (HLA-A*68:02; [9]) of the same sequence?
A: 6.00

Q: What about the pKd (HLA-A*02:01 [1]; [9]) of the same sequence?
A: ≤ 4.16

Q: What about the pKd (HLA-A*02:02; [9]) of the same sequence?
A: ≤ 4.47

Q: And the pKd (HLA-A*02:06; [9])?
A: 4.82

Q: What does the source list for EENMEVEIW?
A: pKd (HLA-B*44:02; [6]): 7.63; pKd (HLA-B*44:03; [6]): 7.09

Q: EIFSMMVSSF was tested. Which pKd (HLA-A*29:02; [10]) did it give?
A: 5.86

Q: And the pKd (HLA-A*30:02; [10])?
A: 4.88

Q: What about the pKd (HLA-A*32:01; [10]) of the same sequence?
A: 5.89

Q: And the pKd (HLA-A*01:01; [10])?
A: 5.12

Q: What about the pKd (HLA-A*26:01 [3]; [10]) of the same sequence?
A: 8.42

Q: And the pKd (HLA-A*30:01; [10])?
A: 6.03

Q: How did the pKd (HLA-A*02:03; source organism: Homo sapiens) turn out when EMKTQLEEL was run?
A: 7.09

Q: What about the pKd (HLA-A*68:02; source organism: Homo sapiens) of the same sequence?
A: 6.55

Q: What about the pKd (HLA-A*02:01 [1]; source organism: Homo sapiens) of the same sequence?
A: ≤ 4.68

Q: How did the pKd (HLA-A*68:02; source organism: Homo sapiens) turn out when EMREQHDAQV was run?
A: 6.34

Q: What about the pKd (HLA-A*02:06; source organism: Homo sapiens) of the same sequence?
A: ≤ 4.16

Q: With ENARLRALL as the sequence, how does the pKd (HLA-B*39:01; source organism: Escherichia coli) read?
A: 6.08

Q: With EPINMFLFI as the sequence, how does the pKd (HLA-B*51:01) read?
A: 6.33

Q: With ESAQPGLLSY as the sequence, how does the pKd (HLA-A*29:02; [11]) read?
A: 5.51

Q: What about the pKd (HLA-A*30:02; [11]) of the same sequence?
A: 5.77

Q: And the pKd (HLA-A*32:01; [11])?
A: ≤ 4.16

Q: And the pKd (HLA-A*01:01; [11])?
A: 7.16

Q: What about the pKd (HLA-A*26:01 [3]; [11]) of the same sequence?
A: 7.84

Q: What about the pKd (HLA-A*30:01; [11]) of the same sequence?
A: ≤ 4.15

Q: How did the pKd (HLA-A*26:01 [3]; [12]) turn out when ESITLATGPL was run?
A: 5.70

Q: What about the pKd (HLA-A*68:02; [12]) of the same sequence?
A: 7.00

Q: How did the pKd (HLA-A*26:01 [4]) turn out when ETPQGLAKI was run?
A: 5.26

Q: ETQHGTVLV was tested. Which pKd (HLA-A*26:01 [3]; [12]) did it give?
A: 5.31

Q: And the pKd (HLA-A*68:02; [12])?
A: 8.60

Q: How did the pKd (HLA-A*68:02; [12]) turn out when EVAETQHGTV was run?
A: 8.82

Q: FAIGDWEPY was tested. Which pKd (HLA-B*46:01) did it give?
A: 7.13

Q: How did the pKd (HLA-B*39:01; source organism: Bacillus anthracis str. A0488) turn out when FKWGKKIIL was run?
A: 7.90

Q: How did the pKd (HLA-A*02:03; [13]) turn out when FLGKIWPSYK was run?
A: 6.35

Q: And the pKd (HLA-A*68:02; [13])?
A: ≤ 4.39

Q: What about the pKd (HLA-A*02:01 [1]; [13]) of the same sequence?
A: 7.05

Q: And the pKd (HLA-A*02:02; [13])?
A: 6.35

Q: And the pKd (HLA-A*02:06; [13])?
A: 5.52

Q: How did the pKd (HLA-B*44:02; [12]) turn out when GEKALKLSWF was run?
A: 6.43

Q: And the pKd (HLA-B*44:03; [12])?
A: 6.87

Q: Which results are given for GERKKLKPRW?
A: pKd (HLA-B*44:02; [5]): 6.08; pKd (HLA-B*44:03; [5]): 5.84

Q: With GLDLQPCIDL as the sequence, how does the pKd (HLA-A*68:02; source organism: Homo sapiens) read?
A: ≤ 4.22

Q: How did the pKd (HLA-A*02:01 [1]; source organism: hepatitis C virus genotype 1a) turn out when GLRDCTMLV was run?
A: 6.38

Q: With GSLLHGLWPY as the sequence, how does the pKd (HLA-A*29:02; [11]) read?
A: 6.40

Q: And the pKd (HLA-A*30:02; [11])?
A: 7.39

Q: What about the pKd (HLA-A*32:01; [11]) of the same sequence?
A: 5.95

Q: What about the pKd (HLA-A*01:01; [11]) of the same sequence?
A: 6.30

Q: What about the pKd (HLA-A*26:01 [3]; [11]) of the same sequence?
A: ≤ 4.56

Q: What about the pKd (HLA-A*30:01; [11]) of the same sequence?
A: 6.99

Q: With HIIIVALTI as the sequence, how does the pKd (HLA-A*32:01; [7]) read?
A: 7.10

Q: Which results are given for IETLMLLAL?
A: pKd (HLA-B*40:01; [12]): 7.97; pKd (HLA-B*44:02; [12]): 5.87

Q: With IILVIIVVI as the sequence, how does the pKd (HLA-A*32:01; [7]) read?
A: 6.38

Q: How did the pKd (HLA-B*15:01) turn out when ILGLNKIVRMY was run?
A: ≤ 4.70

Q: With ILNFVAHVY as the sequence, how does the pKd (HLA-A*29:02; [14]) read?
A: 8.91

Q: What about the pKd (HLA-A*30:02; [14]) of the same sequence?
A: 9.28

Q: What about the pKd (HLA-A*32:01; [14]) of the same sequence?
A: 6.03

Q: And the pKd (HLA-A*01:01; [14])?
A: 5.10

Q: What about the pKd (HLA-A*26:01 [3]; [14]) of the same sequence?
A: 4.92

Q: What about the pKd (HLA-A*30:01; [14]) of the same sequence?
A: 5.50

Q: ITHFCSFNI was tested. Which pKd (HLA-A*32:01; [7]) did it give?
A: ≤ 4.68

Q: How did the pKd (HLA-A*68:02; source organism: Dengue virus 4 Dominica/814669/1981) turn out when ITIAVASGL was run?
A: 7.51
